The text below walks through data of PMC9331583.

The target of this assay is apolipoprotein E (human (endogenous in Huh7.5 and HMC3)) (UniProt P02649).
UniProt P02649, sequence (P02649 19-317): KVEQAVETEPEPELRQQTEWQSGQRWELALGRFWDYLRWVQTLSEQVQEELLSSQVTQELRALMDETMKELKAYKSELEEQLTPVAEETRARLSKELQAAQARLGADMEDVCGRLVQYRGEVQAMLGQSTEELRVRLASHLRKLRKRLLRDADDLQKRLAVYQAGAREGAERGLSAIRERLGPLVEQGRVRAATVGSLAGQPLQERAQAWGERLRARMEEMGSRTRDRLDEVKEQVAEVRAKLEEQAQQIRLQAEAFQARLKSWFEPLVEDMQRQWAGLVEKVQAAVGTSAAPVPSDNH

For “Zika envelope glycoprotein (natural protein)”, the decrease in infection of Huh7.5 cells (percent of cells positive for ZIKV envelope by FACS, relative to isotype Abs) by ZIKV particles pre-incubated with goat anti-ApoE Abs at 1.5 and 10 μg/mL is 60%.
